Laboratory results: patent US9784749

Assays:
[1] = target: r244 rabbit anti-human TnTuORF antiserum; experiment: competitive radioimmunoassay with r244 and 125I-TnTuORF(Tyr) tracer
[2] = target: r244 rabbit anti-human TnTuORF antiserum; experiment: competitive radioimmunoassay, TnTuORF standard against 125I-TnTuORF(Tyr) tracer for r244

Cross reactivity with TnTuORF antiserum (%) [1]: 100%
ED50 [2]: 0.458 µg/mL
Binder: MAPEGWVIVVIS [Synthetic human Troponin T upstream open reading frame (TnTuORF) peptide]
